Laboratory results from article PMC9411592, “Specificity of TGF-β1 signal designated by LRRC33 and integrin αVβ8” (Nature Communications, 2022).

Legend:
[1] = biological target: T1, L-TGF-β1 C4S/R249A (the 'WT' of the SPR assay) (human); test: SPR; Biacore T200, 25 °C; L-TGF-β1 (C4S/R249A, or + RGEGATG) immobilised on a CM5 chip by amine coupling; integrin headpieces injected at 20 μl/min in 20 mM HEPES pH 7.5, 150 mM NaCl, 1 mM MgCl2, 1 mM CaCl2; 1:1 Langmuir model; conditions: both partners purified
T1 construct: latent TGF-β1, human, with C4S and R249A; numbers count on: the protein without its signal peptide; The methods describe L-TGF-β1 alone as N-terminally His6-tagged, made in HEK293S GnTI- cells, tag cleaved with PreScission; also called WT (C4S/R249A) L-TGF-β1; mutant L-TGF-β1 (C4S/R249A); source: purified

[2] = biological target: L-TGF-β1/LRRC33 complex (L-TGF-β1 dimer disulfide-linked to one LRRC33 ectodomain) (human, N-linked glycosylation | N-linked glycosylation); test: cryo-EM structure; purified αVβ8 headpiece and purified L-TGF-β1/LRRC33 mixed on ice at a molar ratio of 2.2:1 with 1 mM MnCl2 and 0.2 mM CaCl2, then SEC; 2:2:1 map at 5.19 Å, masked 1:2 αVβ8/L-TGF-β1 at 3.24 Å; conditions: both partners purified
Chain of L-TGF-β1/LRRC33 complex (L-TGF-β1 dimer disulfide-linked to one LRRC33 ectodomain) (human, N-linked glycosylation | N-linked glycosylation) (chain, as listed by the source, chain 1 of 2): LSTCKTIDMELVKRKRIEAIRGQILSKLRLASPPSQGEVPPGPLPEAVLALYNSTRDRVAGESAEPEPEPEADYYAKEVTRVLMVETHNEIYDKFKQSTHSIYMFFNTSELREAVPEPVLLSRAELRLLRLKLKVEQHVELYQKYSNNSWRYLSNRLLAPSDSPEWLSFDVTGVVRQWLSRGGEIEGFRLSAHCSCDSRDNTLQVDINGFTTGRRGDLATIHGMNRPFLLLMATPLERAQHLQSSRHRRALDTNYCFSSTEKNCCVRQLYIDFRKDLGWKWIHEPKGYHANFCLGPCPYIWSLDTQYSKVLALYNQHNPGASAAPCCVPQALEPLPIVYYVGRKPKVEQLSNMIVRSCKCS
Chain of L-TGF-β1/LRRC33 complex (L-TGF-β1 dimer disulfide-linked to one LRRC33 ectodomain) (human, N-linked glycosylation | N-linked glycosylation) (chain, as listed by the source, chain 2 of 2): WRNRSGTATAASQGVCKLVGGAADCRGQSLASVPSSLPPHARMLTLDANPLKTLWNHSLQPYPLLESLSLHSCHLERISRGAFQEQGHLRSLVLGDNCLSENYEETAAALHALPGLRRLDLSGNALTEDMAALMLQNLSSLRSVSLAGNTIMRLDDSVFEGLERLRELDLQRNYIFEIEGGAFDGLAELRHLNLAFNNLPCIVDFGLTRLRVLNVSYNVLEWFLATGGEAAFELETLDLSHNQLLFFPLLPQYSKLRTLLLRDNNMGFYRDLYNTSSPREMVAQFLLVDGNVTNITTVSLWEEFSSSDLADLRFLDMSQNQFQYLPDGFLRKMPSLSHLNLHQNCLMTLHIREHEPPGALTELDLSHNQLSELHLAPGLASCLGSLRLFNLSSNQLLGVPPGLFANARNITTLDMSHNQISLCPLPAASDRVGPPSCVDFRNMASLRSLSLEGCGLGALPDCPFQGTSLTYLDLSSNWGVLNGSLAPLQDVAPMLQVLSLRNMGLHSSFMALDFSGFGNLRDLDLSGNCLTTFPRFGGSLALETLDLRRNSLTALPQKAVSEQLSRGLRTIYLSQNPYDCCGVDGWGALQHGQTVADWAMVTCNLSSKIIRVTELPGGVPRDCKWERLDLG

T1 sequence (P01137 other isoform, or with tags, fused parts or gaps R249A R249A): as the sequence (chain, as listed by the source, chain 1 of 2) above, with C4S, R249A counted along it

B1: integrin αVβ8 headpiece (αV residues 1-594, β8 residues 1-456) (complex)
chain 1: FNLDVDSPAEYSGPEGSYFGFAVDFFVPSASSRMFLLVGAPKANTTQPGIVEGGQVLKCDWSSTRRCQPIEFDATGNRDYAKDDPLEFKSHQWFGASVRSKQDKILACAPLYHWRTEMKQEREPVGTCFLQDGTKTVEYAPCRSQDIDADGQGFCQGGFSIDFTKADRVLLGGPGSFYWQGQLISDQVAEIVSKYDPNVYSIKYNNQLATRTAQAIFDDSYLGYSVAVGDFNGDGIDDFVSGVPRAARTLGMVYIYDGKNMSSLYNFTGEQMAAYFGFSVAATDINGDDYADVFIGAPLFMDRGSDGKLQEVGQVSVSLQRASGDFQTTKLNGFEVFARFGSAIAPLGDLDQDGFNDIAIAAPYGGEDKKGIVYIFNGRSTGLNAVPSQILEGQWAARSGCPPSFGYSMKGATDIDKNGYPDLIVGAFGVDRAILYRARPVITVNAGLEVYPSILNQDNKTCSLPGTALKVSCFNVRFCLKADGKGVLPRKLNFQVELLLDKLKQKGAIRRALFLYSRSPSHSKNMTISRGGLMQCEELIAYLRDESEFRDKLTPITIFMEYRLDYRTAADTTGLQPILNQFTPANISRQAHILLD
chain 2: EDNRCASSNAASCARCLALGPECGWCVQEDFISGGSRSERCDIVSNLISKGCSVDSIEYPSVHVIIPTENEINTQVTPGEVSIQLRPGAEANFMLKVHPLKKYPVDLYYLVDVSASMHNNIEKLNSVGNDLSRKMAFFSRDFRLGFGSYVDKTVSPYISIHPERIHNQCSDYNLDCMPPHGYIHVLSLTENITEFEKAVHRQKISGNIDTPEGGFDAMLQAAVCESHIGWRKEAKRLLLVMTDQTSHLALDSKLAGIVCPNDGNCHLKNNVYVKSTTMEHPSLGQLSEKLIDNNINVIFAVQGKQFHWYKDLLPLLPGTIAGEIESKAANLNNLVVEAYQKLISEVKVQVENQVQGIYFNITAICPDGSRKPGMEGCRNVTSNDEVLFNVTVTMKKCDVTGGKNYAIIKPIGFNETAKIHIHRNCSCQCEDNRGPKGKCVDETFLDSKCFQCDENK
- Kd [1]: 111 nM
- stoichiometry N [2]: 2 αVβ8 per L-TGF-β1 dimer/LRRC33 complex

B2: integrin αVβ6-8DLL headpiece (the disulfide-linked loop of β6 substituted by that of β8) (complex)
chain 1: FNLDVDSPAEYSGPEGSYFGFAVDFFVPSASSRMFLLVGAPKANTTQPGIVEGGQVLKCDWSSTRRCQPIEFDATGNRDYAKDDPLEFKSHQWFGASVRSKQDKILACAPLYHWRTEMKQEREPVGTCFLQDGTKTVEYAPCRSQDIDADGQGFCQGGFSIDFTKADRVLLGGPGSFYWQGQLISDQVAEIVSKYDPNVYSIKYNNQLATRTAQAIFDDSYLGYSVAVGDFNGDGIDDFVSGVPRAARTLGMVYIYDGKNMSSLYNFTGEQMAAYFGFSVAATDINGDDYADVFIGAPLFMDRGSDGKLQEVGQVSVSLQRASGDFQTTKLNGFEVFARFGSAIAPLGDLDQDGFNDIAIAAPYGGEDKKGIVYIFNGRSTGLNAVPSQILEGQWAARSGCPPSFGYSMKGATDIDKNGYPDLIVGAFGVDRAILYRARPVITVNAGLEVYPSILNQDNKTCSLPGTALKVSCFNVRFCLKADGKGVLPRKLNFQVELLLDKLKQKGAIRRALFLYSRSPSHSKNMTISRGGLMQCEELIAYLRDESEFRDKLTPITIFMEYRLDYRTAADTTGLQPILNQFTPANISRQAHILLD
chain 2: HVQGGCALGGAETCEDCLLIGPQCAWCAQENFTHPSGVGERCDTPANLLAKGCQLNFIENPVSQVEILKNKPLSVGRQKNSSDIVQIAPQSLILKLRPGGAQTLQVHVRQTEDYPVDLYYLMDLSASMDDDLNTIKELGSRLSKEMSKLTSNFRLGFGSFVEKPVSPFVKTTPEEIANPCSDYNLDCLPTFGFKHILPLTNDAERFNEIVKNQKISANIDTPEGGFDAIMQAAVCKEKIGWRNDSLHLLVFVSDADSHFGMDSKLAGIVCPNDGLCHLDSKNEYSMSTVLEYPTIGQLIDKLVQNNVLLIFAVTQEQVHLYENYAKLIPGATVGLLQKDSGNILQLIISAYEELRSEVELEVLGDTEGLNLSFTAICNNGTLFQHQKKCSHMKVGDTASFSVTVNIPHCERRSRHIIIKPVGLGDALELLVSPECNCDCQKEVEVNSSKCHHGNGSFQCGVCACHPGHMGPRCE
- Kd [1]: 46.9 nM

B3: integrin αVβ6 headpiece (αV residues 1-594, β6 residues 1-474) (complex)
chain 1: FNLDVDSPAEYSGPEGSYFGFAVDFFVPSASSRMFLLVGAPKANTTQPGIVEGGQVLKCDWSSTRRCQPIEFDATGNRDYAKDDPLEFKSHQWFGASVRSKQDKILACAPLYHWRTEMKQEREPVGTCFLQDGTKTVEYAPCRSQDIDADGQGFCQGGFSIDFTKADRVLLGGPGSFYWQGQLISDQVAEIVSKYDPNVYSIKYNNQLATRTAQAIFDDSYLGYSVAVGDFNGDGIDDFVSGVPRAARTLGMVYIYDGKNMSSLYNFTGEQMAAYFGFSVAATDINGDDYADVFIGAPLFMDRGSDGKLQEVGQVSVSLQRASGDFQTTKLNGFEVFARFGSAIAPLGDLDQDGFNDIAIAAPYGGEDKKGIVYIFNGRSTGLNAVPSQILEGQWAARSGCPPSFGYSMKGATDIDKNGYPDLIVGAFGVDRAILYRARPVITVNAGLEVYPSILNQDNKTCSLPGTALKVSCFNVRFCLKADGKGVLPRKLNFQVELLLDKLKQKGAIRRALFLYSRSPSHSKNMTISRGGLMQCEELIAYLRDESEFRDKLTPITIFMEYRLDYRTAADTTGLQPILNQFTPANISRQAHILLD
chain 2: HVQGGCALGGAETCEDCLLIGPQCAWCAQENFTHPSGVGERCDTPANLLAKGCQLNFIENPVSQVEILKNKPLSVGRQKNSSDIVQIAPQSLILKLRPGGAQTLQVHVRQTEDYPVDLYYLMDLSASMDDDLNTIKELGSRLSKEMSKLTSNFRLGFGSFVEKPVSPFVKTTPEEIANPCSSIPYFCLPTFGFKHILPLTNDAERFNEIVKNQKISANIDTPEGGFDAIMQAAVCKEKIGWRNDSLHLLVFVSDADSHFGMDSKLAGIVCPNDGLCHLDSKNEYSMSTVLEYPTIGQLIDKLVQNNVLLIFAVTQEQVHLYENYAKLIPGATVGLLQKDSGNILQLIISAYEELRSEVELEVLGDTEGLNLSFTAICNNGTLFQHQKKCSHMKVGDTASFSVTVNIPHCERRSRHIIIKPVGLGDALELLVSPECNCDCQKEVEVNSSKCHHGNGSFQCGVCACHPGHMGPRCE
- Kd [1]: 2.18 nM
